In the supplement of paper PMC6755084:

B1: minF1; a variant is named by its letters at N, in order (parent)
chain: GAGACCGCAACTGAAAAGTTGTTNNNNAANNNNGGNTNNATTTCTGCACGTAGAAGCAAAAGGC

Variants of: B1
Test: fraction ligated after 30 min (ligated reads / total reads); higher = more ligase activity
Settings: with F1*subA RNA substrate (template-directed ligation), 42 °C
Protocol: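 Chip-synthesised pool of minF1 ligase ribozyme variants (single and double substitutions, single to quadruple deletions, bulge and P2 designed variants) was transcribed with T7 and reacted as a pool with excess substrate F1*subA for 30 min at 42 C in 50 mM EPPS pH 8.5, 25 mM MgCl2. Ligated and unligated RNAs were separated by PAGE, barcoded by RT and deep sequenced; fraction ligated = ligated reads / total reads, relative activity = FL / FL of wild-type minF1 (0.76); sequencing FL correlated with PAGE (R2 = 0.98). Sequences are the DNA template of the ribozyme.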

Variant	fraction ligated
ATCGGGAGTGA	0.00227
ATCGATGGGTT G34A G35T T37G A40G	0.000298
ATGATGGAGTG G34T	0.011
ATCGTGGTTGA	0.00112
ATCGATGAGTT G34T T37G	0.00178
ATCGTGGATGA	0.00177
ATCGTGGAGTT G34T T37G A40G	0.00133
ATCGTGATGTG	0.0261
ATCGTGATGTA	0.00285
ATCGGGATTGA A29T	0.00409
ATCAGGATGTG A29T	0.0272
ATCGATGATGA	0.00308
ATCGGGTGTGA A29T	0.00298
ATCATATGTGA	0.00281
ATCGGGAGTGA A29T	0.00273
ATCAATGGGTT G34T T37G	0.00279
ATCATGGGTGA	0.00433
ATCGTGATTGA	0.00326
ATCATGATGTG A28G	0.0138
ATCAGGATGTA A28G A29T	0.00157
ATCGGGATGTA	0.00428
ATCGGGATGTG	0.0285
ATCATGGAGTA A28G G34T	0.00586
ATCGAGGAGTA G34T	0.00121

Variant	fraction ligated
ATCAGGATGTG A28G	0.0124
ATCAGGTGTGA A28G A29T	0.00216
ATCATATGTGA A28G	0.00411
ATCGAGATTGA	0.00372
ATCAATTGTGA A28G	0.00238
ATCGAGGAGTG G34T	0.00393
ATCGAGGTGTG	0.00858
ATCGAGGTGTA	0.00324
ATGAGATGTGA A29G	0.00416
ATGAGATGTGA A29T	0.00278
ATCGAGGGTGA	0.00167
ATCAGATGTGA A29T	0.00586
ATCAGATGTGA A29G	0.0024
ATGAGGTGTGA	0.00168
ATCAATGTGTA A28G	0.00287
ATCAATGGGTT G34A T37G A40G	0.00153
ATGATGGTTGA	0.00283
ATCATGGAGTG A28G	0.00442
ATCGTGTGTGA	0.00325
ATCGAGGATGA	0.00383
ATCGATGGGTT G34T T37G A40G	0.00104
ATCGGGATGTG A29T	0.0354
ATCATGGAGTG G34T	0.0119
ATCAGGTGTGA A28G	0.00256

Variant	fraction ligated
ATCGGGATGTA A29T	0.00281
ATGATGGTGTG	0.00658
ATGATGGTGTA	0.00485
ATCATGAGTGA	0.00331
ATCGATGAGTA G34T	0.00167
ATCGATAGTGA	0.00296
ATCAATGGGTT G34A G35T T37G A40G	0.00189
ATCAATGTGTG	0.00785
ATCAATGTGTA	0.00707
ATGAGGATGTA A29T	0.00295
ATCATGGAGTT G34T T37G A40G	0.00188
ATGATGGAGTG	0.00409
ATGATGGAGTA	0.00203
ATCATGATGTA A28G	0.00257
ATCATGGATGA A28G	0.00362
ATCAATGTTGA A28G	0.0018
ATCGGGATTGA	0.00341
ATCAATGGTGA	0.0039
ATCGATGGGTT G34A T37G A40G	0.00135
ATCATGTGTGA A28G	0.00186
ATCATGGAGTA A28G	0.00253
ATCGAGGAGTT G34T T37G	0.00239
ATGATATGTGA	0.00429
ATCATGGAGTA G34T	0.00594

Variant	fraction ligated
ATCAGATGTGA	0.00333
ATCATGATTGA	0.00257
ATCGAGATGTG	0.0313
ATCGAGATGTA	0.00349
ATCAGGATTGA A28G A29T	0.00153
ATCGATGAGTT G34T T37G A40G	0.00104
ATCGATGAGTG	0.00474
ATCGATGAGTA	0.00221
ATCGATGAGTG G34T	0.0033
ATCGAGGTTGA	0.00313
ATGATGGAGTA G34T	0.00469
ATCATGGTGTG A28G	0.0033
ATCGATATTGA	0.00165
ATGAGGATGTG A29T	0.00971
ATCAGGAGTGA A29T	0.00323
ATCAATGTGTG A28G	0.00324
ATCGAATGTGA	0.00581
ATGAGGTGTGA A29T	0.00679
ATCAGATGTGA A28G	0.00527
ATCGTGGAGTG G34T	0.0139
ATCATGATTGA A28G	0.00281
ATCAGGAGTGA A28G A29T	0.0016
ATCGGATGTGA A29G	0.00359
ATCGGATGTGA A29T	0.00285

Variant	fraction ligated
ATCGTGGAGTA G34T	0.0058
ATCATGGTGTA A28G	0.0034
ATCAGGATTGA A28G	0.0019
ATGATGTGTGA	0.0027
ATCAGGTGTGA A29T	0.00874
ATGAGGAGTGA A29T	0.0018
ATCGGATGTGA	0.00494
ATCATGGTTGA A28G	0.00132
ATGATGGGTGA	0
ATCAATGGGTT G34A T37G	0.001
ATCGATGGGTG G34T	0.00494
ATCGATGGGTG G34A	0.00444
ATCATGAGTGA A28G	0.00204
ATCAGGATGTA A28G	0.00247
ATCAGGAGTGA	0.00543
ATCGTGGGTGA	0.00142
ATGAGGATTGA A29T	0.00582
ATCATGGAGTT G34T T37G	0.00293
ATCGATTGTGA	0.00257
ATCAGATGTGA A28T A29G	0.0131
ATGAGATGTGA A28T A29G	0.016
ATCGATGGTGA	0.00498
ATCGATGGGTT G34A G35T T37G	0.00178
ATGAGGATTGA	0.00566

Variant	fraction ligated
ATCAATGGTGA A28G	0.00319
ATGAGGATGTA	0.00328
ATGAGGATGTG	0.00619
ATCGATGGGTT G34T T37G	0.00156
ATCGTGAGTGA	0.00262
ATGATGGATGA	0.00302
ATCATGGATGA	0.00299
ATCGTGGAGTT G34T T37G	0.00145
ATCGGATGTGA A28T A29G	0.012
ATGATGATTGA	0.00379
ATCAGGATGTG	0.00943
ATCAGGATGTA	0.00297
ATCATGATGTG	0.0143
ATCATGATGTA	0.00345
ATCGATGTTGA	0.00239
ATCGATGTGTA	0.00271
ATCGATGTGTG	0.00543
ATCATGGAGTG A28G G34T	0.0152
ATCAGGATGTA A29T	0.00407
ATCGAGGAGTT G34T T37G A40G	0.000736
ATCGAGTGTGA	0.00242
ATCGAGAGTGA	0.00383
ATCAATGTTGA	0.00356
ATCAATTGTGA	0.00256

Variant	fraction ligated
ATCGATGGGGT G34A G35T T37G A40T	0.00147
ATCAGGATTGA A29T	0.00634
ATCGATATGTG	0.00524
ATCGATATGTA	0.0031
ATCAGGTGTGA	0.00443
ATCAGGATGTG A28G A29T	0.00377
ATCGATGGGTT G34A T37G	0.00243
ATGATGAGTGA	0.00204
ATCAGGAGTGA A28G	0.0026
ATCATGGAGTG	0.00597
ATCATGGAGTA	0.00426
ATCGGGTGTGA	0.00323
ATCGTGGTGTA	0.00478
ATCGTGGTGTG	0.00802
ATCATGGAGTT A28G G34T T37G	0.00165
ATCGTATGTGA	0.00154
ATCGATGGGTG	0.00493
ATCGATGGGTA	0.000742
ATCATGGTGTG	0.00925
ATCATGGTGTA	0.00395
ATCGTGGAGTG	0.00496
ATCGTGGAGTA	0.00217
ATCATGGTTGA	0.0043
